Measurements published in PMC10630626.
One block for each binder: values may come before it.

Columns and labels:
[1] = target: Palivizumab single-chain variable fragment, light-heavy order, fused to IgG1 Fc (P^scFvLHFc)
Palivizumab [2] = assay: ELISA; competitive: Palivizumab coated, HRP-conjugated anti-idiotypic IgG (AbD23967/HCA262P, 0.2 μg/ml; 1 nM in the legend) co-incubated with 0.1-100 nM soluble AIP1-4^VHH, 1% BSA in PBS, room temperature
Palivizumab [3] = assay: SPR; Palivizumab (about 1000 RU) or P^scFvFc variants (about 500 RU) captured on a Protein A chip, AIP^VHH as analyte; Biacore X100, 25 °C, PBS pH 7.4 with 0.05% P20, 30 μl/min, 120 s injection, 500 s dissociation, 1:1 binding model
[4] = target: Palivizumab single-chain variable fragment, light-heavy order, fused to IgG1 Fc (P^scFvLHFc); assay: as above
[5] = target: Palivizumab single-chain variable fragment, heavy-light order, fused to IgG1 Fc (P^scFvHLFc); assay: as above
[6] = target: anti-idiotypic nanobody for Palivizumab 1 (AIP1^VHH), soluble
[7] = target: anti-idiotypic nanobody for Palivizumab 1 (AIP1^VHH), soluble; remark: listed apart in the source
[8] = target: anti-idiotypic nanobody for Palivizumab 3 (AIP3^VHH), soluble
[9] = target: anti-idiotypic nanobody for Palivizumab 2 (AIP2^VHH), soluble
[10] = target: anti-idiotypic nanobody for Palivizumab 1 (AIP1^VHH), soluble; remark: listed apart in the source
[11] = target: anti-idiotypic nanobody for Palivizumab 3 (AIP3^VHH), soluble; remark: listed apart in the source
[12] = target: anti-idiotypic nanobody for Palivizumab 2 (AIP2^VHH), soluble; remark: listed apart in the source
[13] = target: anti-idiotypic nanobody for Palivizumab 3 (AIP3^VHH), soluble; remark: listed apart in the source

- IC50 of soluble AIP1^VHH (0.49-1000 nM) for proliferation of Ba/F3-gp130-AIP1^VHHgp130 cells induced by 2 nM P^scFvLHFc; blocks P^scFvLHFc with AIP1^VHHgp130 [1]: 2.79 nM
- IC50 (Palivizumab [2]): 1.76 nM
- Kd (Palivizumab [3]): 0.026 nM
- koff (Palivizumab [3]): 5.9e-05 s⁻¹
- kon (Palivizumab [3]): 2.3e+06 M⁻¹ s⁻¹
- Kd [4]: 0.0098 nM
- Kd [5]: 0.0272 nM
B1: anti-idiotypic nanobody for Palivizumab 1 (AIP1^VHH), soluble (VHH)
VHH: DVQLQESGGGLVQAGGSLRLSCVASGLTFRYDMGWFRQAPGKEREFVAQITWRGGSATYYADSVKGRFTIARDIAKNAVYLQMNSLKPEDTAVYYCAAAYGSAGYRPDEYDSWGQGTQVTVSS

- IC50 of soluble AIP3^VHH (0.49-1000 nM) for proliferation of Ba/F3-gp130-AIP1^VHHgp130 cells induced by 2 nM P^scFvLHFc; blocks P^scFvLHFc with AIP1^VHHgp130 [1]: 364 nM
- IC50 (Palivizumab [2]): 48.5 nM
- Kd (Palivizumab [3]): 1.11 nM
B2: anti-idiotypic nanobody for Palivizumab 3 (AIP3^VHH), soluble (VHH)
VHH: DVQLQESGGGLVQPGGSLRLSCVASGRTWSIYAMGWFRQAPGKEREFVTAISISRSESVTHYAESVTGRFTISRDNAKNTLHLQMNSLKPEDTAVYFCAADRRSIDPHHTIDYWGQGTQVTVSS

- IC50 of Palivizumab (0.49-1000 nM) for proliferation of Ba/F3-gp130-AIP1^VHHgp130 cells induced by 2 nM P^scFvLHFc; blocks P^scFvLHFc with AIP1^VHHgp130 [6]: 8.28 nM
- molar excess of Palivizumab over P^scFvLHFc (2 nM) for complete suppression of STAT3 phosphorylation in Ba/F3-gp130-AIP1^VHHgp130 cells (fold molar excess) [6]: > 8
- EC50 of proliferation of Ba/F3-gp130-AIP1^VHHgp130 cells, Palivizumab cross-linked with a 6-fold molar excess of hFc-mAb [7]: 215 nM
- EC50 of proliferation of Ba/F3-gp130-AIP3^VHHgp130 cells, Palivizumab cross-linked with a 6-fold molar excess of hFc-mAb [8]: 2.71 nM
- proliferation of Ba/F3-gp130 cells expressing AIP3^VHHgp130, Palivizumab 0.033-66 nM, percent of the maximal proliferation with HIL-6 [8]: 20%
- EC50 of proliferation of Ba/F3-gp130-AIP2^VHHgp130 cells, Palivizumab cross-linked with a 6-fold molar excess of hFc-mAb [9]: 48.8 nM
B3: Palivizumab (antibody, V domains shown)
VH: QVTLRESGPALVKPTQTLTLTCTFSGFSLSTSGMSVGWIRQPPGKALEWLADIWWDDKKDYNPSLKSRLTISKDTSKNQVVLKVTNMDPADTATYYCARSMITNWYFDVWGAGTTVTVSS
VL: DIQMTQSPSTLSASVGDRVTITCKCQLSVGYMHWYQQKPGKAPKLLIYDTSKLASGVPSRFSGSGSGTEFTLTISSLQPDDFATYYCFQGSGYPFTFGGGTKLEIK

- EC50 of proliferation of Ba/F3-gp130-AIP1^VHHgp130 cells, P^scFvHLFc 0.00056-100 nM (Fig. 6E) [10]: 0.4 nM
- EC50 of proliferation of Ba/F3-gp130-AIP1^VHHgp130 cells, P^scFvHLFc 0.00563-5.77 nM (Fig. 6H) [10]: 0.5 nM
- lowest concentration that induced STAT3 phosphorylation in Ba/F3-gp130-AIP1^VHHgp130 cells (0.19 to 6 nM tested, Fig. 6I) [10]: 0.19 nM
- EC50 of proliferation of Ba/F3-gp130-AIP3^VHHgp130 cells, P^scFvHLFc 0.00056-100 nM (Fig. 6E) [11]: 9.1 nM
- EC50 of proliferation of Ba/F3-gp130-AIP2^VHHgp130 cells, P^scFvHLFc 0.00056-100 nM (Fig. 6E) [12]: 0.7 nM
B4: Palivizumab single-chain variable fragment, heavy-light order, fused to IgG1 Fc (P^scFvHLFc) (Fc fusion)
VH: B3 VH
VL: B3 VL

- caspase 3/7 activity in Ba/F3-gp130-AIP3^VHHFas cells, dimeric P^scFvLHFc 0.1-100 nM, percent of the activity with cross-linked 2× P^scFvLHFc [13]: < 50%
- EC50 of proliferation of Ba/F3-gp130-AIP1^VHHgp130 cells, P^scFvLHFc 0.00563-5.77 nM (Fig. 6H) [10]: 0.38 nM
- EC50 of proliferation of Ba/F3-gp130 cells expressing AIP1^VHHgp130, P^scFvLHFc 0.00053-93.5 nM (Fig. 6B) [10]: 0.21 nM
- lowest concentration that induced STAT3 phosphorylation in Ba/F3-gp130-AIP1^VHHgp130 cells (0.19 to 6 nM tested, Fig. 6I) [10]: 1.5 nM
- EC50 of proliferation of Ba/F3-gp130 cells expressing AIP3^VHHgp130, P^scFvLHFc 0.00053-93.5 nM (Fig. 6B) [11]: 6.61 nM
B5: Palivizumab single-chain variable fragment, light-heavy order, fused to IgG1 Fc (P^scFvLHFc) (Fc fusion)
VH: B3 VH
VL: B3 VL

- Kd (Palivizumab [3]): 3.14 nM
B6: anti-idiotypic nanobody for Palivizumab 4 (AIP4^VHH), soluble (VHH)
VHH: DVQLQESGGGLVQAGGSLRLSCVASGRAFSRYDMGWFRQAPGKEREFVAQISWRGGSATSYADTVKGRFTIARDNAKNTVYLQMNSLKPEDTAVYYCNARTPTLSSWGQGTQVTVSS

- IC50 of soluble AIP2^VHH (0.49-1000 nM) for proliferation of Ba/F3-gp130-AIP1^VHHgp130 cells induced by 2 nM P^scFvLHFc; blocks P^scFvLHFc with AIP1^VHHgp130 [1]: 83.1 nM
- IC50 (Palivizumab [2]): 4.4 nM
- Kd (Palivizumab [3]): 2.16 nM
B7: anti-idiotypic nanobody for Palivizumab 2 (AIP2^VHH), soluble (VHH)
VHH: DVQLQESGGGLVQAGGSLRLSCAASESLFRLNAMGWYRQAPGKQRELVAGITTSGDAVYADSVKGRFTISRDSAKNTVYLQTNNLKPEDTAVYYCNVRPRAGTWENARIGVWGQGTQVTVSS
